B1: WIF1 (Wnt Inhibitory Factor 1): T255A (protein)
parent chain: MARRRAFPAFALRLWSILPCLLLLRADAGQPPEESLYLWIDAHQARVLIGFEEDILIVSEGKMAPFTHDFRKAQQRMPAIPVNIHSMNFTWQAAGQAEYFYEFLSLRSLDKGIMADPTVNVPLLGTVPHKASVVQVGFPCLGKQDGVAAFEVNVIVMNSEGNTILRTPQNAIFFKTCQQAECPGGCRNGGFCNERRVCECPDGFYGPHCEKALCIPRCMNGGLCVTPGFCICPPGFYGVNCDKANCSTTCFNGGTCFYPGKCICPPGLEGEQCELSKCPQPCRNGGKCIGKSKCKCPKGYQGDLCSKPVCEPGCGAHGTCHEPNKCQCREGWHGRHCNKRYGASLMHAPRPAGAGLERHTPSLKKAEDRRDPPESNYIW
B2: WIF1 (Wnt Inhibitory Factor 1): T255/319A (protein)
parent chain: B1 parent chain

How the values were obtained:
[1] = anti-V5 Western blot of CHO conditioned media; settings: glycan lost; control: WT WIF1-V5-His
[2] = anti-V5 Western blot of CHO cell lysates, GAPDH-normalised; settings: glycan lost; control: WT WIF1-V5-His

Protein | expression_or_secretion, percent_of_wt [1] | localisation_or_trafficking [2]
B1 | decreases, decrease of more than 50% vs 100 | increases
B2 | decreases, decrease of more than 50% vs 100 | increases

— PMC7565927
